Common to all, as to format: cell-based, human
Assay [1] concerns seipin-mEGFP. Briefly: FACS screen of auxin perceptive proteins and degrons (mean GFP intensity) in A431 cell pools. The procedure: To search for an improved AID system to solve the issue, a pipeline was first established in human A431 cells to screen AID components (FIG. 2A). Various auxin perceptive proteins and degrons were selected for screening. Several TIR1 and AFB2 proteins from different plant species were tested, as well as degrons derived from AtIAA17 (SEQ ID NO: 3), these including amino acid (aa.) 65-132 (miniAID), aa. 62-109, aa. 71-114. All these degrons were included in the screen. […] These high affinity fragments were tested, assuming higher affinity might translate into more efficient inducible degradation. Degrons with KR dipeptide deletions were tested to see if they would have an effect on enhancing IAA binding affinity, IAA-inducible depletion or as part of a nuclear localization signal. PB1 domain of the AUX/IAA proteins has not been implicated in auxin-inducible degradation, so several other degrons with PB1 domain sequences homologous to miniAID were also tested.
A431 cell pools were generated to stably express different combinations of auxin perceptive protein and degron-fused seipin. Cells were cotransfected with a mixture of three vectors composed of pSH-EFIRES-P expressing an auxin perceptive protein, pSH-EFIRES-B expressing a degron-fused seipin, and pCas9-sgAAVS1 at ratio 3:3:4. Transfected cells were passaged 4-6 h after transfection at 1:5 into 6-well plates. On the next day, cells were selected with 1 μg/ml puromycin (Sigma, P8833) for 2 days, and with 5 μg/ml blasticidin (Gibco, A1113904) for 2 days, then with both antibiotics for at least 6 days before using for FACS analysis.
(§1) For FACS analysis, cells were seeded at 1:5 (for A431) or 1:3 (for A549) into 6-well plate in medium without selection on day 0. On day 1, medium was changed to 2 ml fresh medium without (for 0 h and 1 h IAA samples) or with (for 16 h IAA samples) 0.5 mM IAA. On day 2, the 1 h samples were supplemented with 0.5 ml medium containing 2.5 mM IAA (final 0.5 mM) and incubated for 1 h at 37° C. After treatment, cells were detached with 0.5 ml trypsin at 37° C. for 5-8 min (A549) or 8-12 min (A431), put on ice, and transferred to 1.5 ml Eppendorf tubes containing 0.5 ml serum-free CO2 independent medium (Gibco). The cell suspensions were centrifuged at 4° C., resuspended in 0.3 ml ice-cold serum-free FluoroBrite DMEM (Gibco) and stored on ice prior to FACS analysis. FACS analysis was performed on a BD Influx cell sorter (BD Biosciences-US) with 100 μm nozzle at 4-8° C. using BD FACS Sortware. Cells were gated with SSC, FSC and trigger pulse width for singlets and 100 000 cells were analyzed for each sample. GFP was excited with 488 nm laser and detected with 530/40 detector; mCherry was excited with 561 nm lasers and detected with 615/20 detector. Data was analyzed with BD FACS Sortware. Background subtracted mean fluorescence intensity was used for analysis.

In assay [2] the test system is endogenous target proteins tagged with miniIAA7-mEGFP. The assay can be described thus: FACS of mean GFP intensity in cells with endogenously miniIAA7-mEGFP-tagged targets and auxin perceptive proteins. The procedure: as §1
Dynein heavy chain (DHC1) and epidermal growth factor receptor (EGFR) were chosen as the first targets. DHC1 is an essential protein that could not be rapidly depleted by using the OsTIR1-miniAID system in a previous study (Natsume et al., 2016, Cell Rep. 15, 210-218). EGFR is a transmembrane receptor with a canonical function in EGF uptake that can be acutely assessed after protein depletion. Endogenous target loci were tagged homozygously in human cells with miniIAA7-mEGFP through Cas9-mediated homology-directed repair (FIG. 3A). DHC1 was tagged homozygously but it was only possible to tag EGFR heterozygously in A431 cells, likely due to its high copy numbers in this cell type (data not shown). […]
Then the overall performance of the AtAFB2-miniIAA7 system in depleting different endogenous proteins was evaluated. […]

The test system of assay [3] is A549 cells with tagged EGFR. The assay can be described thus: EGF uptake in A549 cells with tagged EGFR. The following applies: EGFR-OsTIR1 cells. The protocol: A549 cells were seeded at 0.4×10^5 cells per 4-well for 3 days. Medium was changed to fresh medium with or without 0.5 mM IAA for 1 h. Cells were washed twice with ice-cold serum free medium with 1% BSA and 0.2 ml of 2 μg/ml Alexa Fluor™ 647 EGF complex (ThermoFisher, E35351) in serum free medium with 1% BSA was added. Cells were further incubated at 37° C. for 20 min before harvesting with trypsin. Samples were kept on ice before FACS analysis. Alexa Fluor™ 647 was excited with 640 nm laser and detected with 720/40 detector, analysing 20 000 cells per sample. Negative control samples were cells incubated in medium without EGF complex. Background subtracted mean fluorescence intensity was used for analysis.

B1: AtAFB2: Arabidopsis thaliana AFB2, auxin perceptive F-box protein (SEQ ID NO: 96) (protein, listed as Arabidopsis thaliana)
chain: MNYFPDEVIEHVFDFVTSHKDRNAISLVCKSWYKIERYSRQKVFIGNCYAINPERLLRRFPCLKSLTLKGKPHFADFNLVPHEWGGFVLPWIEALARSRVGLEELRLKRMVVTDESLELLSRSFVNFKSLVLVSCEGFTTDGLASIAANCRHLRDLDLQENEIDDHRGQWLSCFPDTCTTLVTLNFACLEGETNLVALERLVARSPNLKSLKLNRAVPLDALARLMACAPQIVDLGVGSYENDPDSESYLKLMAVIKKCTSLRSLSGFLEAAPHCLSAFHPICHNLTSLNLSYAAEIHGSHLIKLIQHCKKLQRLWILDSIGDKGLEVVASTCKELQELRVFPSDLLGGGNTAVTEEGLVAISAGCPKLHSILYFCQQMTNAALVTVAKNCPNFIRFRLCILEPNKPDHVTSQPLDEGFGAIVKACKSLRRLSLSGLLTDQVFLYIGMYANQLEMLSIAFAGDTDKGMLYVLNGCKKMKKLEIRDSPFGDTALLADVSKYETMRSLWMSSCEVTLSGCKRLAEKAPWLNVEIINENDNNRMEENGHEGRQKVDKLYLYRTVVGTRMDAPPFVWIL
As for B1, the “target protein level before IAA addition, compared to OsTIR1” value in assay [1] (miniAID as degron, 0 h IAA) is on record as “over 5 fold”. Further, in assay [1] (miniAID as degron, 0 h IAA, compared to OsTIR1), the basal depletion entry was “minimal basal depletion”. In addition, the “auxin-inducible depletion at 1 h IAA” value in assay [1] (miniAID as degron, 1 h IAA (0.5 mM)) is reported as “inefficient”. In assay [1] (miniAID as degron, 16 h IAA (0.5 mM)), the “auxin-inducible depletion at 16 h IAA, compared to OsTIR1” value was “similar”. Moreover, the “auxin-inducible depletion at 1 h IAA and at longer times” value in assay [2] (DHC1 (A431) and EGFR (A549) tagged with miniIAA7-mEGFP) is recorded as “efficient auxin-inducible depletion”. In assay [2] (DHC1 (A431) and EGFR (A549) tagged with miniIAA7-mEGFP, 0 h IAA), the “basal degradation at 0 h IAA” value is recorded as “minimal basal degradation”.

B2: OsTIR1: TIR1 derived from Oryza sativa, auxin perceptive protein (protein)
chain: MTYFPEEVVEHIFSFLPAQRDRNTVSLVCKVWYEIERLSRRGVFVGNCYAVRAGRVAARFPNVRALTVKGKPHFADFNLVPPDWGGYAGPWIEAAARGCHGLEELRMKRMVVSDESLELLARSFPRFRALVLISCEGFSTDGLAAVASHCKLLRELDLQENEVEDRGPRWLSCFPDSCTSLVSLNFACIKGEVNAGSLERLVSRSPNLRSLRLNRSVSVDTLAKILLRTPNLEDLGTGNLTDDFQTESYFKLTSALEKCKMLRSLSGFWDASPVCLSFIYPLCAQLTGLNLSYAPTLDASDLTKMISRCVKLQRLWVLDCISDKGLQVVASSCKDLQELRVFPSDFYVAGYSAVTEEGLVAVSLGCPKLNSLLYFCHQMTNAALVTVAKNCPNFTRFRLCILEPGKPDVVTSQPLDEGFGAIVRECKGLQRLSISGLLTDKVFMYIGKYAKQLEMLSIAFAGDSDKGMMHVMNGCKNLRKLEIRDSPFGDAALLGNFARYETMRSLWMSSCNVTLKGCQVLASKMPMLNVEVINERDGSNEMEENHGDLPKVEKLYVYRTTAGARDDAPNFVKIL
For the molecule B2, the “IAA-independent reduction of EGF uptake” value in assay [3] is recorded as “severe IAA-independent reduction”. Further, the “basal depletion at 0 h IAA” value in assay [2] (EGFR-OsTIR1 cells (A549), 0 h IAA) is “severe basal depletion”.

B3: miniIAA7: degron composed of AtIAA7 (SEQ ID NO: 1) amino acids 37-104 (protein, listed as Arabidopsis thaliana)
chain: GFSETVDLMLNLQSNKEGSVDLKNVSAVPKEKTTLKDPSKPPAKAQVVGWPPVRNYRKNMMTQQKTSS
Regarding B3, the “reduction of GFP at 1 h IAA” value in assay [1] (AtAFB2 expressing cells, 1 h IAA) is on record as “best reduction of GFP”. For the same molecule, the “efficiency of protein reduction compared to miniAID” value in assay [1] (in combination with AtAFB2, 1 h IAA) is “over 3 fold”.
